Assay [1] has as its target ACE-083 (FST291-Fc fusion protein) (human). Nature of the assay: SPR; Biacore T100, capture format at 37 °C; ACE-083 captured on an anti-human IgG Fc sensor chip, ligands injected as analytes in a concentration series in duplicate; association 210 sec, dissociation 600 sec (1200 sec for activin A and GDF11); global fit to a 1:1 binding model with mass transfer term; apparent KD.

The target in assay [2] is ACE-083 (human). Kind of assay: SPR; detailed kinetics: ACE-083 captured on immobilized goat anti-human Fc-specific antibody; two-fold series of BMP6 (0.156 nM-5 nM) and BMP7 (0.078 nM-5 nM) injected in duplicate, association 210 sec, dissociation 600 sec, 100 μl/min; global fit to 1:1 model with mass transport term (BIAevaluation); means of two flow cells. (In general: SPR reads the build-up and loss of mass on a sensor chip optically.)

Assay [3] deals with activin A (UniProt P08476).
Assay [4] concerns the target myostatin (GDF8) (UniProt O14793).
Assay [5] addresses activin B (UniProt P09529).
Assay [6] deals with growth differentiation factor 11 (GDF11) (UniProt O95390).
Assay [7] concerns the target activin A (UniProt P08476). This is another data set of the same source.
Assay [8] has as its target myostatin (GDF8) (UniProt O14793). This is another data set of the same source.
The target of assay [9] is activin B (UniProt P09529). The source holds these as a separate data set.
In assay [10] the target is growth differentiation factor 11 (GDF11) (UniProt O95390). This is another data set of the same source.

For orientation: koff means a measure of how fast the partners let go of each other. By kon is commonly meant the rate constant with which the complex forms.

Turning to “myostatin (GDF8) (from UniProt O14793 267-375) (ligand)”, in assay [1], the Kd worked out at 348 pM, the koff is 0.000185 s⁻¹ and the kon was 532000 M⁻¹ s⁻¹.
In [2], “BMP7 (from UniProt P18075 293-431) (ligand)” came in with a Kd of 291 pM, a koff of 0.00196 s⁻¹ and an on-rate constant (kon) of 6.75e+06 M⁻¹ s⁻¹.
On to ACE-083 (FST291-Fc fusion protein), for which the IC50 of inhibition of activin A signaling through its cognate receptors, CAGA12 dual-luciferase reporter-gene assay in A204 cells in assay [3] is 39.2 pM. Further, the IC50 of inhibition of GDF8 signaling through its cognate receptors, CAGA12 dual-luciferase reporter-gene assay in A204 cells in [4] worked out at 676 pM. The molecule further returned an IC50 of inhibition of activin B signaling through its cognate receptors, CAGA12 dual-luciferase reporter-gene assay in A204 cells in [5] of 49.2 pM. Besides, the IC50 of inhibition of GDF11 signaling through its cognate receptors, CAGA12 dual-luciferase reporter-gene assay in A204 cells in assay [6] amounted to 75.9 pM.
In assay [7], ACE-083 (Fc fusion) displayed a Supplementary Figure S2: IC50 of ACE-083 for inhibition of activin A signalling through its cognate receptors, luciferase reporter-gene assay in A204 cells (representative curve of three experiments) of 4.63 ng/mL. In assay [8], this molecule displayed a Supplementary Figure S2: IC50 of ACE-083 for inhibition of GDF8 signalling through its cognate receptors, luciferase reporter-gene assay in A204 cells (representative curve of three experiments) of 81.9 ng/mL. For the same molecule, the Supplementary Figure S2: IC50 of ACE-083 for inhibition of activin B signalling through its cognate receptors, luciferase reporter-gene assay in A204 cells (representative curve of three experiments) in [9] amounted to 4.75 ng/mL. The molecule further came in with a Supplementary Figure S2: IC50 of ACE-083 for inhibition of GDF11 signalling through its cognate receptors, luciferase reporter-gene assay in A204 cells (representative curve of three experiments) in assay [10] of 8.04 ng/mL.

B1: activin A (ligand)
chain: GLECDGKVNICCKKQFFVSFKDIGWNDWIIAPSGYHANYCEGECPSHIAGTSGSSLSFHSTVINHYRMRGHSPFANLKSCCVPTKLRPMSMLYYDDGQNIIKKDIQNMIVEECGCS
In the case of B1, in [1], the Kd was 78.8 pM, the koff turned out to be 0.000155 s⁻¹ and the kon was determined as 1.97e+06 M⁻¹ s⁻¹.

B2: growth differentiation factor 11 (GDF11) (ligand)
chain: NLGLDCDEHSSESRCCRYPLTVDFEAFGWDWIIAPKRYKANYCSGQCEYMFMQKYPHTHLVQQANPRGSAGPCCTPTKMSPINMLYFNDKQQIIYGKIPGMVVDRCGCS
Regarding B2, in [1], the Kd is 15.4 pM, the koff was 7.2e-05 s⁻¹ and the kon is 4.77e+06 M⁻¹ s⁻¹.

B3: activin B (ligand)
chain: GLECDGRTNLCCRQQFFIDFRLIGWNDWIIAPTGYYGNYCEGSCPAYLAGVPGSASSFHTAVVNQYRMRGLNPGTVNSCCIPTKLSTMSMLYFDDEYNIVKRDVPNMIVEECGCA
Regarding B3, in assay [1], the Kd is 10.3 pM, the koff was determined as 0.000199 s⁻¹ and the kon is 1.93e+07 M⁻¹ s⁻¹.

For the origin of these results see article PMC6684588.
